Results reported in patent US20130295073A1, “Use of pegylated recombinant human arginase for treatment of leukemia” (Bio-Cancer Treatment International Ltd., priority 2010, published 2013).

How the values were obtained:
[1] = test system: HL60 cells; experiment: Liver, spleen and sternum cytology of HL60-inoculated mice; format: in vivo; details: HL60-inoculated NOD/SCIDS mice; BCT-100 50 U/mice i.p. weekly for 4 weeks; doxorubicin 3 mg/kg/day i.p.; FIG. 8
Experimental: (§1) HL60 cells were injected to the tail of NOD/SCIDS mice. Treatment commenced on day 14. The animals were divided into 4 groups. The Doxorubicin group received treatment by doxorubicin, which was administrated at 3 mg/kg/day by intraperitoneal injection 3 times weekly for the first week, thereafter once per week for 4 weeks. The BCT-100 group received treatment by BCT-100, which was administrated at 50 U/mice by intraperitoneal injection weekly for 4 weeks. The combinational group received treatment of both Doxorubicin and BCT-100, administrated as described above. The control group received intraperitoneal injection of saline. […] In the control group, infiltration of leukemia in liver, spleen and sternum was observed.

[2] = test system: Kasumi-1a, ML2, HL60, K562, NB4, ALL-SIL and Jurkat; experiment: Combination effect of BCT-100 with Doxorubicin on leukemia cell lines; format: cell-based; details: FIG. 7
Description: The combination effect of BCT-100 with Doxorubicin on various leukemia cell lines was studied. The leukemia cell lines tested were myeloid leukemia cell lines Kasumi-1a, ML2, HL60, K562, NB4 and lymphocytic leukemia cell lines ALL-SIL and Jurkat.

[3] = test system: All-SIL; experiment: IC50 of BCT-100 in leukemia cell lines; format: cell-based; details: T-cell leukemia
Description: (§2) The inhibitory effect of BCT-100 in acute myeloid leukemia cells (Kasumi-1a, ML2, HL60, K562 and NB4) and T-cell leukemia cells (Jurkat, ALL-SIL, HPB-ALL and TALL-1) was studied.

[4] = test system: K562; experiment: IC50 of BCT-100 in leukemia cell lines; format: cell-based; details: K562, myeloid leukemia
Description: as §2

[5] = test system: Kasumi-1a; experiment: IC50 of BCT-100 in leukemia cell lines; format: cell-based; details: myeloid leukemia
Description: as §2

[6] = test system: HL60; experiment: IC50 of BCT-100 in leukemia cell lines; format: cell-based; details: HL60, myeloid leukemia
Description: as §2

[7] = test system: HPB-ALL; experiment: IC50 of BCT-100 in leukemia cell lines; format: cell-based; details: T-cell leukemia
Description: as §2

[8] = test system: TALL-1; experiment: IC50 of BCT-100 in leukemia cell lines; format: cell-based; details: TALL-1, T-cell leukemia
Description: as §2

[9] = test system: NB4; experiment: IC50 of BCT-100 in leukemia cell lines; format: cell-based; details: NB4, myeloid leukemia
Description: as §2

[10] = test system: ML2; experiment: IC50 of BCT-100 in leukemia cell lines; format: cell-based; details: ML2, myeloid leukemia
Description: as §2

[11] = test system: Jurkat; experiment: IC50 of BCT-100 in leukemia cell lines; format: cell-based; details: T-cell leukemia
Description: as §2

[12] = Arginine depletion in preclinical study
Description: Arginase is a manganese-containing enzyme, catalyzing the conversion of arginine to ornithine and urea, the last step of the Urea Cycle.

[13] = test system: U937; experiment: Cell viability in myelocytic leukemia cells; format: cell-based; details: U937, arsenic sensitive; FIG. 1a/1b
Description: (§3) The effect of BCT-100 on arsenic sensitive myelocytic cell lines (NB4 and U937) as well as arsenic resistant myelocytic cell lines (HL60 and UF1) was investigated.
(§4) Both the arsenic sensitive and resistant leukemia cells responded to the BCT-100 treatment.

[14] = test system: HL60; experiment: Cell viability in myelocytic leukemia cells; format: cell-based; details: HL60, arsenic resistant; FIG. 1a/1b
Description: as §3, §4

[15] = test system: NB4; experiment: Cell viability in myelocytic leukemia cells; format: cell-based; details: NB4, arsenic sensitive; FIG. 1a/1b
Description: as §3, §4

[16] = test system: UF1; experiment: Cell viability in myelocytic leukemia cells; format: cell-based; details: UF1, arsenic resistant; FIG. 1a/1b
Description: as §3, §4

[17] = test system: U937; experiment: Induction of apoptosis in leukemia cells; format: cell-based; details: U937, arsenic sensitive; FIG. 2
Experimental: (§5) The effect of BCT-100 in inducing apoptosis in both arsenic sensitive (NB4 and U937) and arsenic resistant (HL60 and UF1) leukemia cell lines was tested. […] However, the apoptosis rate was low in HL60 and UF1 cells in the presence of arsenic, as these cell lines are arsenic resistant.

[18] = test system: HL60; experiment: Induction of apoptosis in leukemia cells; format: cell-based; details: HL60, arsenic resistant; FIG. 2
Experimental: as §5

[19] = test system: NB4; experiment: Induction of apoptosis in leukemia cells; format: cell-based; details: NB4, arsenic sensitive; FIG. 2
Experimental: as §5

[20] = test system: UF1; experiment: Induction of apoptosis in leukemia cells; format: cell-based; details: UF1, arsenic resistant; FIG. 2
Experimental: as §5

[21] = test system: HL-60; experiment: Survival of HL60-inoculated mice; format: in vivo; details: HL-60-inoculated NOD/SCIDS mice; FIG. 9
Experimental: as §1
The effect of BCT-100 on the survival rate of HL-60-incoluated NOD/SCIDS mice was investigated. […] Thus BCT-100 can be administrated with Doxorubicin to treat leukemia, e.g., myeloid leukemia.

[22] = test system: pmTOR; experiment: Western blot of pmTOR expression in HL60; format: cell-based; details: FIG. 3
Experimental: (§6) Expression of Bax and pmTOR was assessed in leukemic cell line HL60 by western blotting with or without BCT-100 treatment using monoclonal antibodies against Bax and pmTOR respectively. The same blot was stripped and probed with anti-actin antibody for loading control. Apoptosis was determined by annexin V labeling. HL60 cells were cultured in medium with or without BCT-100 and the expression of annexin V were analyzed by flow-cytometry at 8, 16, 24, and 36 hrs after BCT-100 treatment.

[23] = test system: HL60 cells; experiment: Reorganization of promyelocytic leukemia nuclear bodies (immunostaining); format: cell-based; details: HL60, anti-promyelocytic leukemia immunostaining, vs DMSO control; FIG. 5
[24] = test system: Bax; experiment: Western blot of Bax expression in HL60; format: cell-based; details: 8 hrs after treatment and afterwards, FIG. 3
Experimental: as §6

[25] = test system: T-cell acute lymphocytic leukemia, acute myeloid leukemia, hepatocellular carcinoma and pancreatic cancer cell lines; experiment: IC50 of BCT-100 in various cancer cell lines; format: cell-based; details: FIG. 6
Description: The IC50 values of BCT-100 in various cancer cell lines were investigated. The cancer cell lines being tested were T-cell acute lymphocytic leukemia, acute myeloid leukemia, hepatocellular carcinoma and pancreatic cancer.

[26] = test system: HL60 cells; experiment: Granulocytic differentiation (CD11b expression, FACS); format: cell-based; details: HL60, within 96-hour treatment; FIG. 4b
Description: (§7) The induction of granulocytic differentiation in NB4 and HL60 cells was studied. […] Specifically, decrease in nuclear to cytoplasmic ratio, appearance of cytoplasmic granules, chromatin condensation and loss of nucleoli were observed.

[27] = test system: NB4 cells; experiment: as above; format: cell-based; details: NB4, within 96-hour treatment; FIG. 4a, 4b
Description: as §7

COc1cccc2c1C(=O)c1c(O)c3c(c(O)c1C2=O)C[C@@](O)(C(=O)CO)C[C@@H]3O[C@H]1C[C@H](N)[C@H](O)[C@H](C)O1 [Doxorubicin, reference compound]
infiltration of leukemia in liver, spleen and sternum (cytology) [1]: Modest infiltration | therapeutic effect on leukemia cell lines [2]: effective in treating leukemia

B1: BCT-100: pegylated recombinant human arginase; pegylating agent may be mPEG-SPA; preparation disclosed in U.S. Ser. No. 10/518,223 (protein, UniProt P05089 1-322, looked up)
Arginase-1: MSAKSRTIGIIGAPFSKGQPRGGVEEGPTVLRKAGLLEKLKEQECDVKDYGDLPFADIPNDSPFQIVKNPRSVGKASEQLAGKVAEVKKNGRISLVLGGDHSLAIGSISGHARVHPDLGVIWVDAHTDINTPLTTTSGNLHGQPVSFLLKELKGKIPDVPGFSWVTPCISAKDIVYIGLRDVDPGEHYILKTLGIKYFSMTEVDRLGIGKVMEETLSYLLGRKKRPIHLSFDVDGLDPSFTPATGTPVVGGLTYREGLYITEEIYKTGLLSGLDIMEVNPSLGKTPEEVTRTVNTAVAITLACFGLAREGNHKPIDYLNPPK
modifications: PEGylated (mPEG-SPA)
IC50 [3]: 120 mU/mL | IC50 [4]: 25 mU/mL | IC50 [5]: 65 mU/mL | IC50 [6]: 55 mU/mL | IC50 [7]: 110 mU/mL | IC50 [8]: 100 mU/mL | IC50 [9]: 60 mU/mL | IC50 [10]: 65 mU/mL | IC50 [11]: 40 mU/mL | arginine depletion [12]: efficacious in inducing arginine depletion in dose-dependent manner | infiltration of leukemia in liver, spleen and sternum (cytology) [1]: Modest infiltration | cell viability [13]: dropped with increasing amount of BCT-100 | cell viability [14]: dropped with increasing amount of BCT-100 | cell viability [15]: dropped with increasing amount of BCT-100 | cell viability [16]: dropped with increasing amount of BCT-100 | apoptosis rate [17]: effective in inducing apoptosis | apoptosis rate [18]: effective in inducing apoptosis | apoptosis rate [19]: effective in inducing apoptosis | apoptosis rate [20]: effective in inducing apoptosis | survival rate and survival days [21]: increased as compared to the control group | protein level of pmTOR [22]: down-regulated | pattern of promyelocytic leukemia nuclear bodies [23]: the microspeckled pattern disappeared and the size and brightness of the promyelocytic leukemia bodies returned to normal | Bax level [24]: up-regulated | effectiveness in cancer cell lines ([25]; T-cell acute lymphocytic leukemia, acute myeloid leukemia, hepatocellular carcinoma and pancreatic cancer): effective | times more potent in leukemia and pancreatic cancer than in hepatocellular carcinoma ([25]; from IC50 values): 6-10 times | granulocytic differentiation [26]: induced granulocytic differentiation | granulocytic differentiation [27]: induced granulocytic differentiation | therapeutic effect on leukemia cell lines [2]: effective in treating leukemia
